Series [1] has as its system rats. Put plainly: one-trial passive avoidance with insulin antagonist α2HSG alone or in combination. In kind it is in vivo. To be noted: for latency time in passive avoidance: compared to vehicle alone.
Method: After a 20 minute pretreatment time, rats were placed in the light side of a two-chambered light/dark Plexiglas passive avoidance apparatus (MED Associates). Once the rat entered the dark chamber, a guillotine door was closed and a 1.0 mA shock (3 sec) was administered. The door was then raised and the rat was allowed to re-enter the light side. Latency (max 600 sec) to enter the dark chamber was taken as a measurement of associative learning.
The nature of series [2]: blood glucose levels by glucometer after intranasal administration. To be noted: doses 3-30 μg, twenty minutes after administration, vs vehicle. The protocol:
Rats (N-5/group) were first anesthetized with isoflorane anesthesia and then administered vehicle (5% (2,6-DI—O-methyl)β-cyclodextrin) or insulin (3-30 μg, 28 USP units/mg) intra-nasally. Twenty minutes later, rats were sacrificed and blood glucose levels rapidly determined with a glucometer (Elite XL, Bayer).

For series [3], the system named is rats. Put plainly: one-trial passive avoidance procedure (associative learning), intranasal pretreatment. The series is classed as in vivo, Male Sprague Dawley rats. The protocol: Passive avoidance was performed in an apparatus (MED Associates Inc., St. Albans, Vt.) consisting of one dark chamber and one light chamber that can be divided by a guillotine door. The training procedure was executed as previously described (N. Venable et al. Psychopharmacology 100, 215 (1990)). Rats were administered a 1.0 mA shock for 3 sec, mice a 0.5 mA shock for 5 sec. Retention tests were performed either at 1, 3 or 7 days post-pairing. Maximum latency was 600 sec for rats, 300 sec for mice.
A control group received vehicle (5% cyclodextrin) alone.

Series [4] concerns rats. Briefly: locomotor activity in open field testing chamber. To be noted: 3-30 μg intranasal, 30 minutes in open field chamber, data not shown. As to the method: Following pretreatment, the rats were placed for 30 minutes in an open field testing chamber (17″×17″×12″ H) where movement was detected every 50 ms by infrared photo beam emitter and detector strips at 1″ and 10″ from the bottom of the chamber. The activity chambers were lined to a PC computer and data was compiled via Activity Monitor Software (4.0, MED Associates, St. Albans, Vt.).

The subject of series [5] is rats. Put plainly: Morris Water Maze (spatial learning), intranasal administration. The series is classed as in vivo, Male Sprague Dawley rats.
Method: Spatial learning was assessed using the Morris Water Maze (Morris et al. Nature, 1982, 297: 681). […] Animals were anaesthetized with isofluorane then administered peptide intra-nasally 20 min before testing. Rats were given four training trials. 48 h after training, a retention test was performed: rats were allowed to find the hidden platform for one trial. […] Latency to find the platform was considered a measure of retention of spatial learning.

With “insulin: insulin from bovine pancreas (C254H377N65O75S6), 28 USP units/mg, from Sigma”, the “latency time in passive avoidance” value in the series with rats [1] (insulin 10 μg alone intranasal) was “enhanced latency time”. In series [2], the blood glucose levels result is reported as “no significant differences between treatment groups”. In addition, in the series with rats [3] (FIG. 9, 24 hours), the “retention of associative learning (24 hours)” value was “enhances retention of associative learning”. Also, in the series on rats [3] (intranasal 10 μg dose, pretreatment 20 min, compared to vehicle), the “latency to enter the dark chamber (associative learning)” value is recorded as “significantly (P<0.05) enhanced latency”. The “distance traveled (locomotor activity)” value in the series on rats [4] was “did not differ between treatments”. In addition, the “latency to find hidden platform, retention test” value with rats [5] (intranasal 3 μg, 48 hours following training, compared to vehicle) is “significantly deceased latency”. The “latency to find submerged platform, acquisition during training” value in the series on rats [5] (intranasal 3-30 μg, four training trials, between groups incl. vehicle) is on record as “No significant differences occurred in acquisition between groups during training”. Further, in the series with rats [5] (intranasal, compared to vehicle), the swimming speed result was “do not affect swimming speed compared to vehicle”.

B1: α2HSG: endogenous inhibitor of insulin receptor tyrosine kinase activity; insulin antagonist (protein, UniProt P02765 19-300; P02765 341-367, looked up)
Alpha-2-HS-glycoprotein chain … 1: APHGPGLIYRQPNCDDPETEEAALVAIDYINQNLPWGYKHTLNQIDEVKVWPQQPSGELFEIEIDTLETTCHVLDPTPVARCSVRQLKEHAVEGDCDFQLLKLDGKFSVVYAKCDSSPDSAEDVRKVCQDCPLLAPLNDTRVVHAAKAALAAFNAQNNGSNFQLEEISRAQLVPLPPSTYVEFTVSGTDCVAKEATEAAKCNLLAEKQYGFCKATLSEKLGGAEVAVTCMVFQTQPVSSQPQPEGANEAVPTPVVDPDAPPSPPLGAPGLPPAGSPPDSHVL
Alpha-2-HS-glycoprotein chain … 2: TVVQPSVGAAAGPVVPPCPGRIRHFKV
On to B1, for which the “latency time in passive avoidance” value in the series on rats [1] (α2HSG 30 μg alone) was “no difference between antagonist alone and vehicle alone”. Further, the “effect on enhancement of latency times by A-chain” value in the series on rats [1] (α2HSG 30 μg in combination with A-chain 3 μg, intranasal) is reported as “blocked enhancement of latency times by A-chain”. The “effect on enhancement of latency times by insulin” value in the series with rats [1] (α2HSG 3-30 μg in combination with insulin 10 μg, intranasal) was “blocked enhancement of latency times by insulin”.

The record behind these values is patent US7655619B2, “Insulin-associated peptides with effects on cerebral health” (Thomas Jefferson University, priority 2002, dated 2010).
